Earlier results on two substances are cited in paper PMC5331060.

Read-outs that look alike come from different tables or passages of the source.

Data set [1] deals with beta clamp (Escherichia coli) (UniProt P0A988).
Data set [2] has the same target. The source holds these as a separate data set.

UniProt P0A988, sequence (P0A988 whole entry): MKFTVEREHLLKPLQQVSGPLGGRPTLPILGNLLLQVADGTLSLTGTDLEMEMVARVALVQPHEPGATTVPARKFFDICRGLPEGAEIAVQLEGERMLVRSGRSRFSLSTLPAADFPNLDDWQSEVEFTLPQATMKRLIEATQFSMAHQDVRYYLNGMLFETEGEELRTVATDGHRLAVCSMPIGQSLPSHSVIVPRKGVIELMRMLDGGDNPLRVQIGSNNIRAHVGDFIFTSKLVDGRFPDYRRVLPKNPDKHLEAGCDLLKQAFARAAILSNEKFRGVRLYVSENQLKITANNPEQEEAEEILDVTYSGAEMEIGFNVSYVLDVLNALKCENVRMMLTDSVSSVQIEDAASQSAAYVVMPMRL

Broadly, the Kd is the concentration at which binding is half-saturated. For the substance DinB (Pol IV) (from UniProt Q47155), the Kd in data set [1] was 460 nM.
Turning to Pol III alpha (from UniProt P10443), the Kd in data set [2] was 108 nM.
